Experiment: In vitro degradation of IL-2 in simulated gastric fluid
Format: in vitro ADME
Details: free IL-2, pH 2.0, 100 min, 37° C., ELISA
Description: In silico and in vitro degradation of bioactive factors within the gastric environment. The in silico cytokine degradation was predicted using the Expasy PeptideCutter software package (E. Gasteiger et al., in The Proteomics Protocols Handbook, J. M. Walker, Ed. (Humana Press, Totowa, N J, 2005), pp. 571-607). In vitro degradation of IL-2 was measured in simulated gastric fluid (Ricca Chemical Company, Arlington, Texas) at pH 2.0. For the second set of the experimental conditions, pepsin (3.2 μg/L, Sigma) was also included. The samples were incubated for […] at 37° C. on a rocker and then neutralized before ELISA assay (R and D systems) for the soluble factors. For the MP containing factors, following treatment in the simulated gastric fluid the MPs were removed and washed multiple times with PBS supplemented with BSA and then incubated for 22 hours in PBS with 0.5% BSA. The released IL-2 was then quantitated with an ELISA excluding that which was released during the initial […] incubation in the simulated gastric fluid.

Q: With “IL-2: recombinant IL-2 (murine, R&D Systems); in silico prediction on SEQ ID NO: 9” as the substance, how does the “degradation in simulated gastric fluid containing pepsin” value read?
A: complete degradation

Reference: patent publication US20240293509A1, “METHODS OF TREATING INFLAMMATORY BOWEL DISEASE” (UNIVERSITY OF PITTSBURGH - OF THE COMMONWEALTH SYSTEM OF …, priority 2021, published 2024)
